# Non-standard residues stand in square brackets, D forms with d. No end group written: not given here. pT = C[C@@H](OP(=O)(O)O)[C@H](N)C(=O)O; pS = N[C@@H](COP(=O)(O)O)C(=O)O
# Columns and labels:
# [1] = biological target: T1, HLA-B*0702 (HLA-B7) peptide complexes (Homo sapiens, UniProt P01889); assay: HLA-B*0702 phosphopeptides associated with leukemia samples (isolation of HLA-associated peptides); settings: for Copies/cell class, ALL1: acute lymphoblastic leukemia sample ALL1; for Copies/cell class, B Cell: healthy B cells; for Copies/cell class, T Cell: healthy T cells; for Copies/cell class, HCL1: hairy cell leukemia sample HCL1
# T1 construct: endogenous in cells; host or cells: JY B-lymphoblastoid line; primary ALL, CLL, HCL, AML samples; bone marrow; healthy B and T cells
# In short: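 Class I HLA-A2 and HLA-B7 complexes were immunoaffinity-purified (BB7.2 or MEL antibodies on protein A) from CHAPS lysates of ~1.2-14×10^9 cells, using phosphatase and protease inhibitors. Sources were Ficoll-purified (>98%) CLL, MCL, ALL and AML cells, healthy splenic T/B cells and JY cells. Peptides were eluted with 10% acetic acid.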
# HLA-B*0702 = biological target: T2, HLA-B*0702 (Homo sapiens, UniProt P01889); assay: Phosphopeptides presented in association with class I molecules (HLA-B*0702) on cancer cells: melanoma and/or leukemia; parameters: key: Melanoma (M); Leukemia (L); L/M: Melanoma (M) and/or Leukemia (L); settings: cancer type on which the HLA-B*0702 phosphopeptide is presented
# T2 construct: endogenous in cells; host or cells: melanoma and/or leukemia cells
"Copies/cell class, ALL1 [1]",L/M (HLA-B*0702),"Copies/cell class, AML1 [1]","Copies/cell class, B Cell [1]","Copies/cell class, T Cell [1]","Copies/cell class, CLL2 [1]","Copies/cell class, CLL4 [1]","Copies/cell class, JY [1]","Copies/cell class, HCL1 [1]",Substance
1 (1 indicates <1 copy/cell),L,–,–,–,–,–,–,–,359 (RSG[pS]LERKV; listed as Homo sapiens) [compound 359]
1 (1 indicates <1 copy/cell),L,–,–,–,–,–,–,–,315 (RPI[pT]PPRNSA; listed as Homo sapiens) [compound 315]
–,L,1 (1 indicates <1 copy/cell),–,–,–,–,–,–,269 (EPKRR[pS]ARL; listed as Homo sapiens) [compound 269]
3 (3 indicates 6-25 copies per cell),L,–,1 (1 indicates <1 copy/cell),2 (2 indicates 1-5 copies/cell),–,–,–,–,287 (KPP[pT]PGASF; listed as Homo sapiens) [compound 287]
1 (1 indicates <1 copy/cell),L/M,2 (2 indicates 1-5 copies/cell),–,–,3 (3 indicates 6-25 copies per cell),2 (2 indicates 1-5 copies/cell),4 (4 indicates >25 copies per cell),2 (2 indicates 1-5 copies/cell),308 (RPA[pS]ARAQPGL; listed as Homo sapiens) [compound 308]
–,L,2 (2 indicates 1-5 copies/cell),–,–,–,–,–,–,330 (RPR[pS]AVLL; listed as Homo sapiens) [compound 330]
4 (4 indicates >25 copies per cell),L,–,1 (1 indicates <1 copy/cell),–,–,–,–,–,305 (RAP[pS]PSSRM; listed as Homo sapiens) [compound 305]
1 (1 indicates <1 copy/cell),L,–,1 (1 indicates <1 copy/cell),1 (1 indicates <1 copy/cell),3 (3 indicates 6-25 copies per cell),2 (2 indicates 1-5 copies/cell),4 (4 indicates >25 copies per cell),1 (1 indicates <1 copy/cell),319 (RPN[pS]PSPTAL; listed as Homo sapiens) [compound 319]
–,L,3 (3 indicates 6-25 copies per cell),–,–,2 (2 indicates 1-5 copies/cell),2 (2 indicates 1-5 copies/cell),4 (4 indicates >25 copies per cell),2 (2 indicates 1-5 copies/cell),388 (TPR[pS]PPLGLI; listed as Homo sapiens) [compound 388]
2 (2 indicates 1-5 copies/cell),L,2 (2 indicates 1-5 copies/cell),2 (2 indicates 1-5 copies/cell),2 (2 indicates 1-5 copies/cell),–,–,2 (2 indicates 1-5 copies/cell),–,351 (RPY[pS]PPFFSL; listed as Homo sapiens) [compound 351]
–,L,3 (3 indicates 6-25 copies per cell),–,–,–,–,–,–,302 (QPR[pS]PGPDYSL; listed as Homo sapiens) [compound 302]
2 (2 indicates 1-5 copies/cell),L,–,1 (1 indicates <1 copy/cell),1 (1 indicates <1 copy/cell),–,–,–,–,361 (RSL[pS]PLLF; listed as Homo sapiens) [compound 361]
–,L,1 (1 indicates <1 copy/cell),–,–,–,–,–,–,297 (LPA[pS]PRARL; listed as Homo sapiens) [compound 297]
–,L,1 (1 indicates <1 copy/cell),–,–,–,–,–,–,317 (RPKLS[pS]PAL; listed as Homo sapiens) [compound 317]
–,L/M,4 (4 indicates >25 copies per cell),–,–,–,–,–,–,374 (SPRR[pS]RSISL; listed as Homo sapiens) [compound 374]
2 (2 indicates 1-5 copies/cell),L,–,2 (2 indicates 1-5 copies/cell),3 (3 indicates 6-25 copies per cell),2 (2 indicates 1-5 copies/cell),–,4 (4 indicates >25 copies per cell),1 (1 indicates <1 copy/cell),306 (RPAK[pS]MDSL; listed as Homo sapiens) [compound 306]
–,L,1 (1 indicates <1 copy/cell),–,–,–,–,–,–,383 (SPSTSRSGG[pS]SRL; listed as Homo sapiens) [compound 383]
–,L,1 (1 indicates <1 copy/cell),–,–,–,–,–,–,389 (VPR[pS]PKHAHSSSL; listed as Homo sapiens) [compound 389]
–,L,1 (1 indicates <1 copy/cell),–,–,–,–,–,–,331 (RPR[pS]LEVTI; listed as Homo sapiens) [compound 331]
1 (1 indicates <1 copy/cell),L,2 (2 indicates 1-5 copies/cell),–,–,1 (1 indicates <1 copy/cell),2 (2 indicates 1-5 copies/cell),4 (4 indicates >25 copies per cell),2 (2 indicates 1-5 copies/cell),377 (SPR[pS]PGKPM; listed as Homo sapiens) [compound 377]
1 (1 indicates <1 copy/cell),L,–,–,–,1 (1 indicates <1 copy/cell),1 (1 indicates <1 copy/cell),–,1 (1 indicates <1 copy/cell),291 (KPR[pS]PDHVL; listed as Homo sapiens) [compound 291]
–,L,2 (2 indicates 1-5 copies/cell),–,–,–,–,–,–,325 (RPRAN[pS]GGVDL; listed as Homo sapiens) [compound 325]
–,L/M,1 (1 indicates <1 copy/cell),–,–,–,–,–,–,267 (APRRY[pS]SSL; listed as Homo sapiens) [compound 267]

# Reference: patent US12042530B2, “Target peptides for immunotherapy and diagnostics” (University of Virginia Patent Foundation, priority 2012, dated 2024)
